To fix the notation:
B1: TP660 (peptide)
peptide: H[αMeS]QGTFTSD[Phe(4-CH2NH2)]([AEEA-AEEA-γGlu-C16 diacid])SKYLD[Aib]RAAQDFVQWLLATK-{γGlu-NH2}
B2: TP674 (peptide)
peptide: H[Aib]QGTFTSDYSKYLEARAAK([AEEA-AEEA-γGlu-C18 diacid])DFVQWL[Met(O2)]DT-NH2
modifications: N-terminus assumed
SMILES: CC(C)C[C@H](NC(=O)[C@H](Cc1ccc(O)cc1)NC(=O)[C@H](CCCCN)NC(=O)[C@H](CO)NC(=O)[C@H](Cc1ccc(O)cc1)NC(=O)[C@H](CC(=O)O)NC(=O)[C@H](CO)NC(=O)[C@@H](NC(=O)[C@H](Cc1ccccc1)NC(=O)[C@@H](NC(=O)CNC(=O)[C@H](CCC(N)=O)NC(=O)C(C)(C)NC(=O)[C@@H](N)Cc1c[nH]cn1)[C@@H](C)O)[C@@H](C)O)C(=O)N[C@@H](CCC(=O)O)C(=O)N[C@@H](C)C(=O)N[C@@H](CCCNC(=N)N)C(=O)N[C@@H](C)C(=O)N[C@@H](C)C(=O)N[C@@H](CCCCNC(=O)COCCOCCNC(=O)COCCOCCNC(=O)CC[C@H](NC(=O)CCCCCCCCCCCCCCCCC(=O)O)C(=O)O)C(=O)N[C@@H](CC(=O)O)C(=O)N[C@@H](Cc1ccccc1)C(=O)N[C@H](C(=O)N[C@@H](CCC(N)=O)C(=O)N[C@@H](Cc1c[nH]c2ccccc12)C(=O)N[C@@H](CC(C)C)C(=O)N[C@@H](CCS(C)(=O)=O)C(=O)N[C@@H](CC(=O)O)C(=O)N[C@H](C(N)=O)[C@@H](C)O)C(C)C
B3: TP581 (peptide)
peptide: H[Aib]QGTFTSD[Phe(4-CH2NH2)]([AEEA-AEEA-γGlu-C20‑OH])SKYLD[Aib]RAAQDFVQWLLATK-{γGlu-NH2}
B4: TP673 (peptide)
peptide: H[Aib]QGTFTSDYSKYLD[Aib]RAAK([AEEA-AEEA-γGlu-C18 diacid])DFVQWL[Met(O2)]ET-NH2
modifications: N-terminus assumed
SMILES: CC(C)C[C@H](NC(=O)[C@H](Cc1c[nH]c2ccccc12)NC(=O)[C@H](CCC(N)=O)NC(=O)[C@@H](NC(=O)[C@H](Cc1ccccc1)NC(=O)[C@H](CC(=O)O)NC(=O)[C@H](CCCCNC(=O)COCCOCCNC(=O)COCCOCCNC(=O)CC[C@H](NC(=O)CCCCCCCCCCCCCCCCC(=O)O)C(=O)O)NC(=O)[C@H](C)NC(=O)[C@H](C)NC(=O)[C@H](CCCNC(=N)N)NC(=O)C(C)(C)NC(=O)[C@H](CC(=O)O)NC(=O)[C@H](CC(C)C)NC(=O)[C@H](Cc1ccc(O)cc1)NC(=O)[C@H](CCCCN)NC(=O)[C@H](CO)NC(=O)[C@H](Cc1ccc(O)cc1)NC(=O)[C@H](CC(=O)O)NC(=O)[C@H](CO)NC(=O)[C@@H](NC(=O)[C@H](Cc1ccccc1)NC(=O)[C@@H](NC(=O)CNC(=O)[C@H](CCC(N)=O)NC(=O)C(C)(C)NC(=O)[C@@H](N)Cc1c[nH]cn1)[C@@H](C)O)[C@@H](C)O)C(C)C)C(=O)N[C@@H](CCS(C)(=O)=O)C(=O)N[C@@H](CCC(=O)O)C(=O)N[C@H](C(N)=O)[C@@H](C)O
B5: TP658 (peptide)
peptide: H[Aib]QGTFTSD[Phe(4-CH2NH2)]([AEEA-AEEA-γGlu-C16 diacid])SKYLD[Aib]RAAQDFVQWL[Met(O2)]ATK-{γGlu-NH2}
B6: TP665 (peptide)
peptide: H[Aib]QGTFTSDYSKYLD[Aib]RAAQ[Phe(4-CH2NH2)]([AEEA-AEEA-γGlu-C16 diacid])FVQWLLATK-{γGlu-NH2}
B7: TP672 (peptide)
peptide: H[Aib]QGTFTSDYSKYLDARAAK([AEEA-AEEA-γGlu-C18 diacid])DFVQWL[Met(O2)]ET-NH2
modifications: N-terminus assumed
SMILES: CC(C)C[C@H](NC(=O)[C@H](Cc1ccc(O)cc1)NC(=O)[C@H](CCCCN)NC(=O)[C@H](CO)NC(=O)[C@H](Cc1ccc(O)cc1)NC(=O)[C@H](CC(=O)O)NC(=O)[C@H](CO)NC(=O)[C@@H](NC(=O)[C@H](Cc1ccccc1)NC(=O)[C@@H](NC(=O)CNC(=O)[C@H](CCC(N)=O)NC(=O)C(C)(C)NC(=O)[C@@H](N)Cc1c[nH]cn1)[C@@H](C)O)[C@@H](C)O)C(=O)N[C@@H](CC(=O)O)C(=O)N[C@@H](C)C(=O)N[C@@H](CCCNC(=N)N)C(=O)N[C@@H](C)C(=O)N[C@@H](C)C(=O)N[C@@H](CCCCNC(=O)COCCOCCNC(=O)COCCOCCNC(=O)CC[C@H](NC(=O)CCCCCCCCCCCCCCCCC(=O)O)C(=O)O)C(=O)N[C@@H](CC(=O)O)C(=O)N[C@@H](Cc1ccccc1)C(=O)N[C@H](C(=O)N[C@@H](CCC(N)=O)C(=O)N[C@@H](Cc1c[nH]c2ccccc12)C(=O)N[C@@H](CC(C)C)C(=O)N[C@@H](CCS(C)(=O)=O)C(=O)N[C@@H](CCC(=O)O)C(=O)N[C@H](C(N)=O)[C@@H](C)O)C(C)C
B8: TP659 (peptide)
peptide: HXQGTFTSDXSKYLDXRAAQDFVQWLLAX
modifications: D-Ser (s) at 2; pAF(PEG2PEG2γEC16OH) at 10; Aib (U) at 16; KγE at 30-31 (γ-glutamic acid after Lys 30); C-terminal amide
B9: TP667 (peptide)
peptide: H[Aib]QGTFTSDYSKYLD[Aib]RAAQFVQ[Phe(4-CH2NH2)]([AEEA-AEEA-γGlu-C16 diacid])WLLATK-{γGlu-NH2}
B10: TP638 (peptide)
peptide: H[Aib]QGTFTSDYSKYLDARAAQDFV[Phe(4-CH2NH2)]([AEEA-γGlu-C18 diacid])WLLDT-NH2
modifications: N-terminus assumed
SMILES: CC(C)C[C@H](NC(=O)[C@H](Cc1ccc(O)cc1)NC(=O)[C@H](CCCCN)NC(=O)[C@H](CO)NC(=O)[C@H](Cc1ccc(O)cc1)NC(=O)[C@H](CC(=O)O)NC(=O)[C@H](CO)NC(=O)[C@@H](NC(=O)[C@H](Cc1ccccc1)NC(=O)[C@@H](NC(=O)CNC(=O)[C@H](CCC(N)=O)NC(=O)C(C)(C)NC(=O)[C@@H](N)Cc1c[nH]cn1)[C@@H](C)O)[C@@H](C)O)C(=O)N[C@@H](CC(=O)O)C(=O)N[C@@H](C)C(=O)N[C@@H](CCCNC(=N)N)C(=O)N[C@@H](C)C(=O)N[C@@H](C)C(=O)N[C@@H](CCC(N)=O)C(=O)N[C@@H](CC(=O)O)C(=O)N[C@@H](Cc1ccccc1)C(=O)N[C@H](C(=O)N[C@@H](Cc1ccc(CNC(=O)COCCOCCNC(=O)CC[C@H](NC(=O)CCCCCCCCCCCCCCCCC(=O)O)C(=O)O)cc1)C(=O)N[C@@H](Cc1c[nH]c2ccccc12)C(=O)N[C@@H](CC(C)C)C(=O)N[C@@H](CC(C)C)C(=O)N[C@@H](CC(=O)O)C(=O)N[C@H](C(N)=O)[C@@H](C)O)C(C)C
B11: TP666 (peptide)
peptide: H[Aib]QGTFTSDYSKYLD[Aib]RAAQFVQK([AEEA-AEEA-γGlu-C16 diacid])WLLATK-{γGlu-NH2}
B12: TP657 (peptide)
peptide: H[Aib]QGTFTSD[Phe(4-CH2NH2)]([AEEA-AEEA-γGlu-C16 diacid])SKYLD[Aib]RAAQDFVQWLL[αMeD]TK-{γGlu-NH2}
B13: TP662 (peptide)
peptide: H[Aib]QGTFTSDYSKYLD[Aib]RAAK([AEEA-AEEA-γGlu-C16 diacid])DFVQWLLATK-{γGlu-NH2}
B14: TP639 (peptide)
peptide: H[Aib]QGTFTSDYSKYLDARAAQDFV[Phe(4-CH2NH2)]([γGlu-C18 diacid])WLLDT-NH2
modifications: N-terminus assumed
SMILES: CC(C)C[C@H](NC(=O)[C@H](Cc1ccc(O)cc1)NC(=O)[C@H](CCCCN)NC(=O)[C@H](CO)NC(=O)[C@H](Cc1ccc(O)cc1)NC(=O)[C@H](CC(=O)O)NC(=O)[C@H](CO)NC(=O)[C@@H](NC(=O)[C@H](Cc1ccccc1)NC(=O)[C@@H](NC(=O)CNC(=O)[C@H](CCC(N)=O)NC(=O)C(C)(C)NC(=O)[C@@H](N)Cc1c[nH]cn1)[C@@H](C)O)[C@@H](C)O)C(=O)N[C@@H](CC(=O)O)C(=O)N[C@@H](C)C(=O)N[C@@H](CCCNC(=N)N)C(=O)N[C@@H](C)C(=O)N[C@@H](C)C(=O)N[C@@H](CCC(N)=O)C(=O)N[C@@H](CC(=O)O)C(=O)N[C@@H](Cc1ccccc1)C(=O)N[C@H](C(=O)N[C@@H](Cc1ccc(CNC(=O)CC[C@H](NC(=O)CCCCCCCCCCCCCCCCC(=O)O)C(=O)O)cc1)C(=O)N[C@@H](Cc1c[nH]c2ccccc12)C(=O)N[C@@H](CC(C)C)C(=O)N[C@@H](CC(C)C)C(=O)N[C@@H](CC(=O)O)C(=O)N[C@H](C(N)=O)[C@@H](C)O)C(C)C
B15: TP663 (peptide)
peptide: H[Aib]QGTFTSDYSKYLD[Aib]RAA[Phe(4-CH2NH2)]([AEEA-AEEA-γGlu-C16 diacid])DFVQWLLATK-{γGlu-NH2}

Numbered stars: 1 amine (or outer) side, 2 acyl side, 3 side chain; on linkers, the order of the positions; unused ones are H or OH. Square brackets hold non-standard residues; d marks the D form. Side chains are listed from the residue outwards. Ends that are not written are not given here. * marks the point of attachment. Phe(4-CH2NH2) = NCc1ccc(C[C@H](N)C(=O)O)cc1; C18 diacid = O=C(O)CCCCCCCCCCCCCCCCC(=O)*; C16 diacid = O=C(O)CCCCCCCCCCCCCCC(=O)*; γGlu = O=C(O)[C@H](CCC(=O)[*:2])N[*:1]; Met(O2) = CS(=O)(=O)CC[C@H](N)C(=O)O; αMeD = C[C@](N)(CC(=O)O)C(=O)O; αMeS = C[C@](N)(CO)C(=O)O; AEEA = NCCOCCOCC(=O)O; Aib = CC(C)(N)C(=O)O

The target in one experiment is human Glucagon receptor (GCGR) (human, UniProt P47871 26-477). Briefly: cell-based or functional assay.
human Glucagon receptor (GCGR), sequence (P47871 26-477): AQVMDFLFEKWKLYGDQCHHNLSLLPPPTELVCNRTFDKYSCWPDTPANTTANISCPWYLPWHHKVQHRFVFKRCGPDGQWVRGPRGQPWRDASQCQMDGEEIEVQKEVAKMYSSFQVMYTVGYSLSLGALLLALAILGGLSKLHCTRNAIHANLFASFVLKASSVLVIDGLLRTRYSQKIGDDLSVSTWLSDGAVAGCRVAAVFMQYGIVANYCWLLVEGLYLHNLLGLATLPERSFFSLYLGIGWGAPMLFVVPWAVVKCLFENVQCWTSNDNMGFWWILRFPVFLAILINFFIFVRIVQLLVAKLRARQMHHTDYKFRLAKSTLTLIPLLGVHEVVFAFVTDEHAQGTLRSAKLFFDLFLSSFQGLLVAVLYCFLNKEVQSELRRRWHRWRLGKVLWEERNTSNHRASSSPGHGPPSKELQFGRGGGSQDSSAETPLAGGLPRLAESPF
Take B1: the “GCGR EC50 human” value came to 4.54 nM.
Same read-out and setting: with B2 the figure was 1.08 nM; with B3, 4.95 nM.
Same read-out and setting: with B4 the figure was 0.22 nM; with B5, 3.2 nM.
Still for that read-out and setting: with B6 the figure was 0.79 nM; with B7, 0.35 nM; with B8, 0.46 nM.
In the case of B9, the “GCGR EC50 human” value is > 19.8 nM.
For B10, the “GCGR EC50 human” value worked out at 5.05 nM.
Turning to B11, the “GCGR EC50 human” value is > 19.8 nM.
In the case of B12, the “GCGR EC50 human” value was determined as 0.14 nM.
The same measure, in the same setting: next, B13: 1.45 nM.
As for B14, the “GCGR EC50 human” value came out at 3.38 nM.
B15: the “GCGR EC50 human” value came to 0.22 nM.

Another experiment has as its target human GLP-1 receptor (GLP1R) (human, UniProt P43220 24-463). Briefly: cell-based or functional assay.
For B1, the “GLP1R EC50 human” value stood at 3.59 nM.
Regarding B2, the “GLP1R EC50 human” value came out at 0.45 nM.
Take B3: the “GLP1R EC50 human” value was determined as 1.69 nM.
The same measure, in the same setting: next, B4: 0.67 nM.
The same measure, in the same setting: with B5 the figure was 1.66 nM.
Regarding B6, the “GLP1R EC50 human” value was 1.6 nM.
Still for that read-out and setting: with B7 the figure was 0.51 nM.
As to B8, the “GLP1R EC50 human” value is > 4.9 nM.
B9: the “GLP1R EC50 human” value is > 19.8 nM.
With B10, the “GLP1R EC50 human” value is 1.55 nM.
With B11, the “GLP1R EC50 human” value was > 19.8 nM.
In the case of B12, the “GLP1R EC50 human” value amounted to 2.18 nM.
The same measure, in the same setting: with B13 the figure was 0.52 nM; with B14, 2.09 nM.
Same read-out and setting: with B15 the figure was 0.38 nM.
